Where a chain is given by its changes, count along the chain named. Like-named read-outs stand apart in the source and are kept apart here.
How the values were obtained:
[1] = target: West Nile virus strain USA99b (strain 385-99), whole virus (West Nile virus strain 385-99 (USA99b)); assay: cell-based or functional assay
[2] = target: West Nile virus strain USA99b (strain 385-99), whole virus (West Nile virus strain 385-99 (USA99b))
[3] = target: West Nile virus CAR82 (strain ArB3573/82) (West Nile virus strain ArB3573/82); assay: cell-based or functional assay
[4] = target: West Nile virus FRA00 (strain PaAn001) (West Nile virus strain PaAn001); assay: cell-based or functional assay
[5] = target: West Nile virus MAD78 (strain DakAnMg798) (West Nile virus strain DakAnMg798); assay: cell-based or functional assay
[6] = target: West Nile virus SEN90 (strain ArD-76104) (West Nile virus strain ArD-76104); assay: cell-based or functional assay
[7] = target: West Nile virus TUN97 (strain paH001) (West Nile virus strain paH001); assay: cell-based or functional assay
[8] = target: West Nile virus strain USA99b (strain 385-99), whole virus (West Nile virus strain 385-99 (USA99b)); assay: cell-based or functional assay; remark: listed apart in the source
[9] = target: West Nile virus strain USA99b (strain 385-99), whole virus (West Nile virus strain 385-99 (USA99b)); assay: ELISA on irradiated WNV; IgG1 at 0.039 µg/ml
[10] = target: West Nile virus strain USA99b (strain 385-99), whole virus (West Nile virus strain 385-99 (USA99b)); assay: ELISA on irradiated WNV; IgG1 at 0.078 µg/ml
[11] = target: West Nile virus strain USA99b (strain 385-99), whole virus (West Nile virus strain 385-99 (USA99b)); assay: ELISA on irradiated WNV; IgG1 at 0.310 µg/ml
[12] = target: West Nile virus strain USA99b (strain 385-99), whole virus (West Nile virus strain 385-99 (USA99b)); assay: ELISA on irradiated WNV; IgG1 at 0.630 µg/ml
[13] = target: West Nile virus strain USA99b (strain 385-99), whole virus (West Nile virus strain 385-99 (USA99b)); assay: ELISA on irradiated WNV; IgG1 at 1.250 µg/ml
[14] = target: West Nile virus strain USA99b (strain 385-99), whole virus (West Nile virus strain 385-99 (USA99b)); assay: ELISA on irradiated WNV; IgG1 at 2.500 µg/ml
[15] = target: West Nile virus strain USA99b (strain 385-99), whole virus (West Nile virus strain 385-99 (USA99b)); assay: ELISA on irradiated WNV; IgG1 at 5.000 µg/ml
[16] = target: West Nile virus strain USA99b (strain 385-99), whole virus (West Nile virus strain 385-99 (USA99b)); assay: ELISA on irradiated WNV; IgG1 at 10.000 µg/ml
[17] = target: West Nile virus strain USA99b (strain 385-99), whole virus (West Nile virus strain 385-99 (USA99b)); assay: ELISA on irradiated WNV; IgG1 at 20.000 µg/ml
[18] = target: West Nile virus strain USA99b (strain 385-99), whole virus (West Nile virus strain 385-99 (USA99b)); assay: ELISA on irradiated WNV; IgG1 supernatant diluted 1:5
[19] = target: West Nile virus strain USA99b (strain 385-99), whole virus (West Nile virus strain 385-99 (USA99b)); assay: ELISA on irradiated WNV; IgG1 supernatant diluted 1:25
[20] = target: West Nile virus strain USA99b (strain 385-99), whole virus (West Nile virus strain 385-99 (USA99b)); assay: ELISA on irradiated WNV; IgG1 at 0.000 µg/ml (no antibody)
[21] = target: West Nile virus strain USA99b (strain 385-99), whole virus (West Nile virus strain 385-99 (USA99b)); assay: ELISA on irradiated WNV; IgG1 at 0.160 µg/ml (printed 0.1.60)
[22] = target: West Nile virus strain USA99b (strain 385-99), whole virus (West Nile virus strain 385-99 (USA99b)); assay: ELISA on irradiated WNV; IgG1 supernatant diluted 1:125 (printed 1.125)
[23] = target: West Nile virus strain USA99b (strain 385-99), whole virus (West Nile virus strain 385-99 (USA99b)); remark: listed apart in the source

B1: CR4361 (antibody, V domains shown)
VH: EVQLVQSGAEVKKPGESLKISCKASGFSFSTYWIGWVRQMPGKGLEWMGIIYPADSDTRYSPSFQGQVTISADKSISTAYLQWSSLKASDTAMYYCARLRGPYYDFWNGYRETHDAFNVWGQGTMVTVSS
VL: DVVMTQSPDSLAVSLGERATINCKSSQNILDNSDNKNFLAWYQQKPGQPPKLLIYWASARESGVPDRFSGSGSGTDFTLTISSLQAEDVALYYCQQYYNTPITFGQGTRLEIKR
- PRNT50 [1]: 2.03 µg/mL
- PRNT90 [1]: > 100 µg/mL

B2: CR4374 (antibody, V domains shown)
VH: QITLKESGPTLVKPTQTLTLTCTFSGFSLSTSGVGVGWIRQPPGKALEWLAVIYWNDDKLYRPSLKSRLTITKDTSKNQVVLTMTKMDPVDTATYYCAHRHRYYDISGYYRLFSDAFDIWGQGTMVTVSS
VL: QSVLTQPPSVSGAPGQRVTISCTGSSSNIGAGYDVHWYQQLPGTAPKLLIYGNSNRPSGVPDRFSGSKSGTSASLAITGLQAEDEADYYCQSYDSSLSGSVFGGGTKLTVLG
- Kd [2]: 56 nM
- PRNT50 [1]: 0.18 µg/mL
- PRNT90 [1]: 0.95 µg/mL
- PRNT50 [3]: 0.14
- PRNT90 [3]: 2.9
- PRNT50 [4]: 0.11
- PRNT90 [4]: 1.36
- PRNT50 [5]: 0.12
- PRNT90 [5]: 4.12
- PRNT50 [6]: 0.29
- PRNT90 [6]: 3.92
- PRNT50 [7]: 0.03
- PRNT90 [7]: 0.22
- PRNT50 [8]: 0.17
- PRNT90 [8]: 0.82
- OD 492nm [9]: 0.458 OD 492nm
- OD 492nm [10]: 0.729 OD 492nm
- OD 492nm [11]: 1.24 OD 492nm
- OD 492nm [12]: 1.45 OD 492nm
- OD 492nm [13]: 1.5 OD 492nm
- OD 492nm [14]: 1.58 OD 492nm
- OD 492nm [15]: 1.65 OD 492nm
- OD 492nm [16]: 1.72 OD 492nm
- OD 492nm [17]: 1.69 OD 492nm
- OD 492nm [18]: 2.32 OD 492nm
- OD 492nm [19]: 2.27 OD 492nm
- OD 492nm [20]: 0.003 OD 492nm
- OD 492nm [21]: 0.997 OD 492nm
- OD 492nm [22]: 2.12 OD 492nm

B3: CR5074 (antibody, V domains shown)
VH: B2 VH
VL: B2 VL with A31T, G52A, N53D, S54T, L80V, S95T, S98T, S100W, L108V
- Kd [23]: 3.9 nM
- PRNT50 [1]: 0.013 µg/mL
- PRNT90 [1]: 0.067 µg/mL

B4: CR5085 (antibody, V domains shown)
VH: B2 VH
VL: B2 VL with L4V, A86T, S98N, S100W
- Kd [23]: 3.7 nM
- PRNT50 [1]: 0.015 µg/mL
- PRNT90 [1]: 0.077 µg/mL

B5: CR5080 (antibody, V domains shown)
VH: B2 VH
VL: B2 VL with S100W, V101A
- Kd [23]: 2.7 nM
- PRNT50 [1]: 0.016 µg/mL
- PRNT90 [1]: 0.08 µg/mL

B6: CR5088 (antibody, V domains shown)
VH: B2 VH
VL: B2 VL with L4V, V18I, L48F, S100W
- Kd [23]: 1.7 nM
- PRNT50 [1]: 0.017 µg/mL
- PRNT90 [1]: 0.087 µg/mL

B7: CR4353 (antibody, V domains shown)
VH: QVQLVESGGGVVQPGRSLRLSCAASGFTFSNYAMHWVRQAPGKGLEWVAVISYDGGNKYYADSVKGRFTMSRDNSKNTLYLQMNSLRAEDTAVYYCARDFWSGYSMVDSYYYYMDVWGQGTTVTVSS
VL: ETTLTQSPGTLSLSPGERATLSCRASQSVSNTFLAWYQQKPGQAPRLLIYGASSRATGIPDRFSGSGSGTDFTLTISRLEPEDFAAYYCQQYGSSLTFGPGTKVDIKR
- Kd [2]: 6.5 nM
- PRNT50 [1]: 0.026 µg/mL
- PRNT90 [1]: 36.4 µg/mL
- OD 492nm [9]: 0.595 OD 492nm
- OD 492nm [10]: 0.734 OD 492nm
- OD 492nm [11]: 1.17 OD 492nm
- OD 492nm [12]: 1.33 OD 492nm
- OD 492nm [13]: 1.42 OD 492nm
- OD 492nm [14]: 1.43 OD 492nm
- OD 492nm [15]: 1.55 OD 492nm
- OD 492nm [16]: 1.57 OD 492nm
- OD 492nm [20]: 0.003 OD 492nm
- OD 492nm [21]: 1.07 OD 492nm
